# In US8221990B2, “Screening GPR12 receptor for substances having Nesfatin-1-like action, or which regulate Nesfatin-1 action” (Teijin Pharma Limited, priority 2007, dated 2012):
# How the values were obtained:
# mouse GPR12 = biological target: T1, mouse GPR12 (Mus musculus, UniProt P35412); test: cAMP production in CHO-K1-cell stable expression system (CHO-K1-GPR12); format: cell-based; settings: CHO-K1-GPR12, peptide 10^-9 M, Forskolin 10^-5 M, 30 minutes
# T1 construct: expressed in transfected cells
# T1 sequence (P35412 1-334): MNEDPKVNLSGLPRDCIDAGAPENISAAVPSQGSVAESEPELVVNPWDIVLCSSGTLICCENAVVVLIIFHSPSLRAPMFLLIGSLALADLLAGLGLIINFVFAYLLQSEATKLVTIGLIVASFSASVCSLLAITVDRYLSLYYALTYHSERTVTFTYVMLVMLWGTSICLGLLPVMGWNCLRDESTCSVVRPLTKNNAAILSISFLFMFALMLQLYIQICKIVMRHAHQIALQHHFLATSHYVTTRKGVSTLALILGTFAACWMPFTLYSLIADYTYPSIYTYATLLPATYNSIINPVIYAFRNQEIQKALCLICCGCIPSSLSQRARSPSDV
# Method: The preparation of cells stably expressing GPR12 was conducted by a conventional method, and hereinafter described briefly. A vector (pcDNA3.1-GPR12) in which a gene (cDNA) encoding mouse GPR12 (SEQ ID NO: 8) was inserted at the downstream of a CMV promoter of pcDNA3.1 (TM) (Invitrogen Corporation) was prepared, 10 μg of the vector was mixed with 250 μL of medium OPTI-MEM™ (Invitrogen Corporation), and 10 μg of Lipofectamine™ 2000 Reagent (Invitrogen Corporation) was mixed with 250 μL of medium OPTI-MEM™, 5 minutes later both mixtures were mixed, and the resultant mixture was left over at room temperature for 20 minutes to prepare a transfection reagent. Chinese hamster ovary cells (CHO-K1) [ATCC Cat. No. CCl-61] plated onto a 6-well plate at 1.5×10^6 cells/well on the previous day in advance were washed with medium OPTI-MEM™ once, and the above-mentioned transfection reagent (vector and Lipofectamine™ 2000 Reagent) was added to the cells dropwise to perform transfection. The resultant transfected cells were incubated at 37° C. for 5 hours in a CO2 incubator, and then the medium was replaced by Ham's F12 medium. Further, the next day the medium was exchanged with Ham's F12 medium containing 100 μg/mL of Geneticin® (Invitrogen Corporation), and furthermore the next day the medium was exchanged with the same medium containing 200 μg/mL of Geneticin®, and the following day the medium was exchanged with the same medium containing 700 μg/mL of Geneticin®, and after that, culturing was continued under the conditions of 37° C. and 5% CO2 in a medium containing Geneticin® at the same concentration. […]
# The measured intracellular cAMP level was evaluated in terms of a ratio (Fold) of each intracellular cAMP level with respect to the mean of the intracellular cAMP level in the (−) group that is set as unity, in which CHO-K1-GPR12 cells were cultured in the medium containing no peptide.
# mGPR12 = biological target: T2, mGPR12 (Mus musculus, UniProt P35412); test: CREB phosphorylation in CHO-K1-cell stable expression system (western blotting); format: cell-based; design: expressed in transfected cells; settings: CHO-K1-mGPR12 cells
# T2 sequence (P35412 1-334): T1 sequence (P35412 1-334)
# Method: Using Nesfatin-1M30 (Mid-segment) as a test substance, the method for bringing the test substance into contact with cells was conducted as follows. The confluent CHO-K1 cells and CHO-K1-mGPR12 cells were recovered in 10-cm dishes, plated onto 10-cm dishes by dividing the cell colony in four quarters, and cultured for 2 days in Ham's F12 medium (as for CHO-K1-mGPR12, 700 μg/mL of Geneticin® was contained). After removing the medium, the resultant cultured cells were washed once with the medium containing no Geneticin®, and then Ham's F12 medium containing 10^−9 M of Nesfatin-1M30 (Mid-segment) peptide was added to the cells. […] SDS-gel electrophoresis was conducted by using the protein extracts from each cells; and then the protein was transcribed into Amersham hybond-P[…] (GE Healthcare); and using anti-phosphorylation CREB antibody (Cell Signaling Technology, Inc., Catalog No. #9191) for detecting the phosphorylated CREB, the phosphorylated CREB was detected with an ECL plus western blotting detection reagents (GE Healthcare) kit, in accordance with the attached protocol. […]
# Further, the concentration dependence was examined by using Nesfatin-1M30 (Mid-segment: SEQ ID NO: 11). […] Subsequently, cellular proteins were extracted, and the phosphorylated CREB (p-CREB) was detected by a western blotting method.
substance,measurement,setting,value
"Nesfatin-1M30: mid-segment of Nesfatin-1, human-derived Nesfatin-1M30, SEQ ID NO: 11 (PDTGLYYDEYLKQVIDVLETDKHFREKLQK; listed as Homo sapiens)",intracellular cAMP level compared with the group (-) cultured in medium containing no peptide,mouse GPR12,about 5 fold
same,"phosphorylation of CREB (p-CREB band), time course","mGPR12; 10^-9 M, 15 minutes or later after contact",phosphorylation of CREB was induced
same,"phosphorylation of CREB, concentration dependence","mGPR12; 10^-12 M to 10^-9 M, 15 minutes",enhanced depending on the M30 peptide concentration
